± gives the uncertainty stated by the source.
B1: Endonuclease CUE2, residues 9 to 47; numbered along this chain, P36075 (parent)
chain: HESKLSILMDMFPAISKSKLQVHLLENNNDLDLTIGLLL

Variants of: B1
Assay: abundance fitness (aPCA) (normalised: wild type 0, dead -1); higher = more abundant; growth selection in yeast, the domain comes from the species named
Conditions: Saccharomyces cerevisiae (strain ATCC 204508 / S288c)

Going from HESKLSILMDMFPAISSSKLQVHLLENNNDLDLTIGLLL to HESKLSILMDMFPAISGSKLQVHLLENNNDLDLTIGLLL, the abundance fitness falls from -0.129 ± 0.048 to -0.255 ± 0.044.

Compared with HESKLSILMDMFPAISISKLQVHLLENNNDLDLTIGLLL, HESKLSILMDMFPAISPSKLQVHLLENNNDLDLTIGLLL is higher in abundance fitness: -0.387 ± 0.11 for the first, -0.082 ± 0.039 for the second.

Going from HESKLSILMDMFPAISVSKLQVHLLENNNDLDLTIGLLL to HESKLSILMDMFPAISQSKLQVHLLENNNDLDLTIGLLL, the abundance fitness rises from -0.196 ± 0.042 to 0.013 ± 0.1.

HESKLSILMDMFPAISMSKLQVHLLENNNDLDLTIGLLL and HESKLSILMDMFPAISFSKLQVHLLENNNDLDLTIGLLL are within error of each other in abundance fitness: -0.307 ± 0.11 for the first, -0.343 ± 0.069 for the second.

HESKLSILMDMFPAISDSKLQVHLLENNNDLDLTIGLLL and HESKLSILMDMFPAISYSKLQVHLLENNNDLDLTIGLLL are within error of each other in abundance fitness: -0.286 ± 0.1 for the first, -0.077 ± 0.15 for the second.

HESKLSILMDMFPAISLSKLQVHLLENNNDLDLTIGLLL and HESKLSILMDMFPAISTSKLQVHLLENNNDLDLTIGLLL are within error of each other in abundance fitness: -0.316 ± 0.057 for the first, -0.263 ± 0.065 for the second.

HESKLSILMDMFPAISASKLQVHLLENNNDLDLTIGLLL and HESKLSILMDMFPAISESKLQVHLLENNNDLDLTIGLLL are within error of each other in abundance fitness: -0.156 ± 0.036 for the first, -0.122 ± 0.04 for the second.

First: HESKLSILMDMFPAISCSKLQVHLLENNNDLDLTIGLLL
Second: HESKLSILMDMFPAISRSKLQVHLLENNNDLDLTIGLLL
The abundance fitness of the first is lower: -0.356 ± 0.12 for the first, -0.074 ± 0.037 for the second.

Compared with HESKLSILMDMFPAISWSKLQVHLLENNNDLDLTIGLLL, HESKLSILMDMFPAISHSKLQVHLLENNNDLDLTIGLLL is higher in abundance fitness: -0.471 ± 0.082 for the first, -0.085 ± 0.086 for the second.

HESKLSILMDGFPAISKSKLQVHLLENNNDLDLTIGLLL and HESKLSILMDPFPAISKSKLQVHLLENNNDLDLTIGLLL are within error of each other in abundance fitness: -0.746 ± 0.074 for the first, -0.748 ± 0.28 for the second.

First: HESKLSILMDLFPAISKSKLQVHLLENNNDLDLTIGLLL
Second: HESKLSILMDDFPAISKSKLQVHLLENNNDLDLTIGLLL
The abundance fitness of the first is higher: -0.184 ± 0.083 for the first, -0.758 ± 0.12 for the second.

Compared with HESKLSILMDAFPAISKSKLQVHLLENNNDLDLTIGLLL, HESKLSILMDSFPAISKSKLQVHLLENNNDLDLTIGLLL is lower in abundance fitness: -0.16 ± 0.049 for the first, -0.421 ± 0.15 for the second.

HESKLSILMDVFPAISKSKLQVHLLENNNDLDLTIGLLL and HESKLSILMDNFPAISKSKLQVHLLENNNDLDLTIGLLL are within error of each other in abundance fitness: -0.447 ± 0.058 for the first, -0.209 ± 0.26 for the second.

Going from HESKLSILMDQFPAISKSKLQVHLLENNNDLDLTIGLLL to HESKLSILMDHFPAISKSKLQVHLLENNNDLDLTIGLLL, the abundance fitness falls from -0.077 ± 0.037 to -0.297 ± 0.14.

First: HESKLSILMDEFPAISKSKLQVHLLENNNDLDLTIGLLL
Second: HESKLSILMDWFPAISKSKLQVHLLENNNDLDLTIGLLL
The abundance fitness of the first is higher: -0.274 ± 0.051 for the first, -0.413 ± 0.048 for the second.

First: HESKLSILMDMFPSISKSKLQVHLLENNNDLDLTIGLLL
Second: HESKLSILMDMFPDISKSKLQVHLLENNNDLDLTIGLLL
The abundance fitness of the first is higher: 0.068 ± 0.046 for the first, -0.118 ± 0.13 for the second.

HESKLSILMDMFPTISKSKLQVHLLENNNDLDLTIGLLL and HESKLSILMDMFPVISKSKLQVHLLENNNDLDLTIGLLL are within error of each other in abundance fitness: -0.163 ± 0.22 for the first, -0.079 ± 0.047 for the second.

HESKLSILMDMFPQISKSKLQVHLLENNNDLDLTIGLLL and HESKLSILMDMFPLISKSKLQVHLLENNNDLDLTIGLLL are within error of each other in abundance fitness: 0.012 ± 0.045 for the first, -0.053 ± 0.036 for the second.

HESKLSILMDMFPGISKSKLQVHLLENNNDLDLTIGLLL and HESKLSILMDMFPWISKSKLQVHLLENNNDLDLTIGLLL are within error of each other in abundance fitness: 0.012 ± 0.031 for the first, -0.047 ± 0.034 for the second.

Compared with HESKLSILMDMFPCISKSKLQVHLLENNNDLDLTIGLLL, HESKLSILMDMFPPISKSKLQVHLLENNNDLDLTIGLLL is lower in abundance fitness: -0.093 ± 0.068 for the first, -0.383 ± 0.076 for the second.

HESKLSILMDMFPRISKSKLQVHLLENNNDLDLTIGLLL and HESKLSILMDMFPFISKSKLQVHLLENNNDLDLTIGLLL are within error of each other in abundance fitness: -0.018 ± 0.036 for the first, -0.033 ± 0.089 for the second.

Compared with HESKLSILMDMFPMISKSKLQVHLLENNNDLDLTIGLLL, HESKLSILMDMFPEISKSKLQVHLLENNNDLDLTIGLLL is higher in abundance fitness: -0.133 ± 0.061 for the first, 0.068 ± 0.039 for the second.

HESKLSILMDMFPAISKSHLQVHLLENNNDLDLTIGLLL and HESKLSILMDMFPAISKSCLQVHLLENNNDLDLTIGLLL are within error of each other in abundance fitness: -0.151 ± 0.077 for the first, -0.248 ± 0.096 for the second.

HESKLSILMDMFPAISKSFLQVHLLENNNDLDLTIGLLL and HESKLSILMDMFPAISKSALQVHLLENNNDLDLTIGLLL are within error of each other in abundance fitness: -0.123 ± 0.08 for the first, -0.051 ± 0.035 for the second.

HESKLSILMDMFPAISKSELQVHLLENNNDLDLTIGLLL and HESKLSILMDMFPAISKSDLQVHLLENNNDLDLTIGLLL are within error of each other in abundance fitness: -0.053 ± 0.042 for the first, -0.081 ± 0.067 for the second.

First: HESKLSILMDMFPAISKSMLQVHLLENNNDLDLTIGLLL
Second: HESKLSILMDMFPAISKSPLQVHLLENNNDLDLTIGLLL
The abundance fitness of the first is higher: -0.095 ± 0.088 for the first, -0.818 ± 0.08 for the second.

Compared with HESKLSILMDMFPAISKSLLQVHLLENNNDLDLTIGLLL, HESKLSILMDMFPAISKSNLQVHLLENNNDLDLTIGLLL is higher in abundance fitness: -0.143 ± 0.045 for the first, 0.063 ± 0.079 for the second.

Compared with HESKLSILMWMFPAISKSKLQVHLLENNNDLDLTIGLLL, HESKLSILMVMFPAISKSKLQVHLLENNNDLDLTIGLLL is higher in abundance fitness: -0.691 ± 0.092 for the first, -0.336 ± 0.044 for the second.

First: HESKLSILMDMFAAISKSKLQVHLLENNNDLDLTIGLLL
Second: HESKLSILMDMFRAISKSKLQVHLLENNNDLDLTIGLLL
The abundance fitness of the first is higher: -0.602 ± 0.11 for the first, -0.951 ± 0.11 for the second.

HESKLSILMDMFLAISKSKLQVHLLENNNDLDLTIGLLL and HESKLSILMDMFFAISKSKLQVHLLENNNDLDLTIGLLL are within error of each other in abundance fitness: -0.795 ± 0.1 for the first, -0.868 ± 0.37 for the second.

HESKLSILMDMFTAISKSKLQVHLLENNNDLDLTIGLLL and HESKLSILMDMFHAISKSKLQVHLLENNNDLDLTIGLLL are within error of each other in abundance fitness: -0.861 ± 0.18 for the first, -1.06 ± 0.3 for the second.

HESKLSILMDMFWAISKSKLQVHLLENNNDLDLTIGLLL and HESKLSILMDMFSAISKSKLQVHLLENNNDLDLTIGLLL are within error of each other in abundance fitness: -1.04 ± 0.14 for the first, -0.806 ± 0.12 for the second.
